For data set [1], the target named is family-D DNA polymerase (PolD), DP1–DP2 complex, T. kodakarensis, recombinant wild type (Thermococcus kodakarensis) (UniProt Q5JET0). Nature of the data set: SPR.
Another data set has as its target PolD cPIP mutant;PCNA1 (Thermococcus kodakarensis;Thermococcus …, UniProt Q5JET1;Q5JET0;Q5JF32 1-735;1-963+1438-1798;1-249, L1792A;F1795A;F1796A;internal_change|). The data set can be described thus: gel filtration. In general terms: In gel filtration, larger molecules generally elute earlier.
The next data set addresses PolD (DP1-DP2);PCNA1 (Thermococcus kodakarensis;Thermococcus …, UniProt Q5JET1;Q5JET0;Q5JET0;Q5JF32 1-735;1-963;1438-1798;1-249, |). The data set can be described thus: gel filtration.

By Kd is commonly meant the equilibrium constant for the complex coming apart.

B1: PriL, large subunit of primase, T. kodakarensis, recombinant (natural protein)
chain: MLDPFGKRAESLIREEFGDLLALLERVPSAISVEEPISLVSWMLESENPPQELVEVDNLEELRDLFKFYALLGAASISPYGLEAEVVKRATLRLYSERIKASKNLSETMLPVVPVGENEIPHNDLNILERRMDRNLSPEEKEKLKIKYKIPIKDLLNLWGSSLKEVYIRNGYAYLRWETALKMWEKAFEKRFERAVNILYEYRDELPEFYHRLREKLEEIAEEYFKERGEMFKGTASPLRFDLFPPCVKEALKGVPAGMRNYAITVLLTSFLSYARICPNPPKKDVRIKDCINDLKIIEEEILPVIIEAGNRCKPPLFEDQPHEIKNIWYHLGFGLTDSPTMEDSGNSTWYFPPNCDKIRANAPQLCKPDKYCRGIKNPLSYYLKRLYLEGKKKEGETSE
Turning to B1, the Kd in data set [1] came out at 160 nM.

B2: primed DNA d29/d45 (dsDNA)
DNA 1: GGTACCGGGCCCCCCCTCGAGGTCGACGG
DNA 2: ATCAAGCTTATCGATACCGTCGACCTCGAGGGGGGGCCCGGTACC
modifications: 3'-OH of d29 replaced by NH2
For the molecule B2, the binding result with PolD cPIP mutant;PCNA1 and with PolD (DP1-DP2);PCNA1 was “binds” each time.

B3: PriS, small subunit of primase, T. kodakarensis, recombinant (natural protein)
chain: MSKLLREVTPEERRLYYSGEWDAKKLPEFIVESIERREFGFDHTGEGPSDRKNAFSDVRDLEDYIRATAPYAAYSSVAFYRNPQEMEGWLGAELVFDIDAKDLPLRRCQNEHPSGQVCPICLEDAKELARDTLIILKEDFGFENIHVVYSGRGYHIRVIDEWALKLDSKARERILSYVSAAEEVTFDDIQKRYIMLSSGYFRVFRLRFGYFIQRINENHLKNIGLKRSTAEKLLDEKTRQDIVEKFVNKGLLAAFPEGVGYRTLLRLFGLSTTFSKAYFDGRVTVDLKRILRLPSTLHSKVGLVATYIGSDEKRLEKFDPFKDAVPEFRKEEVQKAYQEWKELHEG
Regarding B3, the Kd in data set [1] stood at 1400 nM.

The values above are taken from paper PMC8096248.
